The values that follow are results of earlier work, collected in patent US6726924B2, “Oral liposomal delivery system” (Biozone Laboratories, Inc., priority 1997, dated 2004).

For this data set the following is noted: oral; free vs liposomes with ceramides; Regnault et al. 1996.

For orientation: bioavailability means the share of a dose that reaches the circulation, judged against a reference dose that is usually intravenous. As for superoxide dismutase, the bioavailability is given as 14%.
